How the values were obtained:
[1] = molecular target: T1, human Fc-Frizzled-Kringle fusion protein (human Fc fused to the Frizzled and Kringle domains of human ROR1) (human); test: yeast surface display sorting
T1 construct: Entry is printed with a leader; also called huFc-frz-KNG

[2] = molecular target: T2, human ROR2 (on recombinant cell lines) (human, UniProt Q01974 34-943); test: flow cytometry on recombinant cell lines; confirmed by standard ELISA
T2 construct: whole, on cells

[3] = molecular target: T3, mouse ROR1 (on 4T1 cells engineered to overexpress it) (mouse, UniProt Q9Z139 30-937); test: flow cytometry, 4T1 cells overexpressing mouse ROR1
T3 construct: whole, on cells; also called muROR1; mROR1
Procedure: (§1) After 15-minutes of incubation at room temperature, the cells were washed twice with 200 μL of PBS by centrifugation at 500×g for 5 minutes at room temperature and resuspended in […] of 10% goat serum in BD staining buffer (BD Biosciences, Cat No: 554657). […] The plates were then covered with foil to avoid direct light and incubated for 60 minutes at 4° C. […] After incubating for 30 minutes at 4° C., the cells were washed twice with 200 μL of PBS by centrifugation at 500×g for 5 minutes at room temperature and resuspended into 100 μL of fixation buffer (BioLegend, Cat No: 420801). The samples were then analyzed on a flow cytometer for binding signal using FlowJo software. ROR and CD3 binding EC₅₀s (concentration vs mean fluorescence intensity (MFI)) for reference molecules and test bispecific TCEs were obtained using 4-parameter non-linear regression curve fitting in GraphPad Prism.

[4] = molecular target: T4, human ROR1 (on cells) (human, UniProt Q01973 30-937); test: cell-based or functional assay
[5] = molecular target: T4, human ROR1 (on cells); test: cell-based or functional assay; remark: listed apart in the source
[6] = molecular target: T3, mouse ROR1 (on 4T1 cells engineered to …); test: flow cytometry, 4T1-muROR1 cells; reference: 82H02 TCE #4
Procedure: as §1

[7] = molecular target: T4, human ROR1 (on cells); test: cell-based or functional assay; remark: listed apart in the source
[8] = molecular target: T3, mouse ROR1 (on 4T1 cells engineered to …); test: flow cytometry; reference: human ROR1 on MDA-MB-231 cells
[9] = molecular target: T4, human ROR1 (on cells); test: cell-based or functional assay; remark: listed apart in the source
[10] = molecular target: T4, human ROR1 (on cells); test: flow cytometry, MDA-MB-231 cells; reference: 82H02 TCE #4
[11] = molecular target: T5, human CD3 (on Jurkat T cells or human CD8+ T cells) (human, UniProt P07766 23-207; P09693 23-182; P04234 22-171; P20963 22-164); test: flow cytometry, human CD8+ T cells
T5 construct: Entries are printed with signal peptides; also called huCD3; CD3ε
Outline: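 Cells stained with test and reference bispecific TCEs, incubated 60 min at 4 °C protected from light, then 30 min at 4 °C further staining, washed and fixed before flow cytometry. Binding EC₅₀ from concentration vs MFI by 4-parameter non-linear regression.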

[12] = molecular target: T4, human ROR1 (on cells); test: flow cytometry, ROR1+ MDA-MB-231 cells
Procedure: as §1

[13] = molecular target: T6, cynomolgus CD3 (on cynomolgus pan-T cells) (cynomolgus, UniProt Q95LI5 22-198); test: flow cytometry, cynomolgus pan-T cells
T6 construct: whole, on cells
Procedure: as §1

T5 sequence (P07766 23-207 limits assumed, chain 1 of 4): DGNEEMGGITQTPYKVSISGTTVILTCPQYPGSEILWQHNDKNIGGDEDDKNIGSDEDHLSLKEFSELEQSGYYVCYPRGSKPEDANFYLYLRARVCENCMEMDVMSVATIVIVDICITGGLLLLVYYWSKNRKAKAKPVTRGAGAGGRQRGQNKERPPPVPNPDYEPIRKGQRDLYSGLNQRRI
T5 sequence (P09693 23-182 limits assumed, chain 2 of 4): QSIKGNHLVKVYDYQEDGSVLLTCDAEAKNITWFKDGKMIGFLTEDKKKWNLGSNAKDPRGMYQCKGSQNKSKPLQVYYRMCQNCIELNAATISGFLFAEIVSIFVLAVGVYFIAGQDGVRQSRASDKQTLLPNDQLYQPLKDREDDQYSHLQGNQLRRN
T5 sequence (P04234 22-171 limits assumed, chain 3 of 4): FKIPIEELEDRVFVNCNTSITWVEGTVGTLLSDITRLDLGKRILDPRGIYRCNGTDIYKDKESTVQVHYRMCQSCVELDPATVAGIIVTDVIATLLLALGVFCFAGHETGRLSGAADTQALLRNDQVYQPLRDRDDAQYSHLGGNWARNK
T5 sequence (P20963 22-164 limits assumed, chain 4 of 4): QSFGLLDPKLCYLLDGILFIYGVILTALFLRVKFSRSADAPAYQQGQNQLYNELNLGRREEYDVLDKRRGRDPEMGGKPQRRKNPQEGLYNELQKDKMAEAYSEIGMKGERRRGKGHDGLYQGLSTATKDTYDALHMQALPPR
T6 sequence (Q95LI5 22-198): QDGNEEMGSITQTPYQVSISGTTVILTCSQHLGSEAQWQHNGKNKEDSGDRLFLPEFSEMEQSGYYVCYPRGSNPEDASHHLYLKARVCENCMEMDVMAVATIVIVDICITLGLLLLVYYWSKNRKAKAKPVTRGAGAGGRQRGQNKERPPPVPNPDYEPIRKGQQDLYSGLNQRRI
T1 sequence (chain, as listed by the source limits assumed): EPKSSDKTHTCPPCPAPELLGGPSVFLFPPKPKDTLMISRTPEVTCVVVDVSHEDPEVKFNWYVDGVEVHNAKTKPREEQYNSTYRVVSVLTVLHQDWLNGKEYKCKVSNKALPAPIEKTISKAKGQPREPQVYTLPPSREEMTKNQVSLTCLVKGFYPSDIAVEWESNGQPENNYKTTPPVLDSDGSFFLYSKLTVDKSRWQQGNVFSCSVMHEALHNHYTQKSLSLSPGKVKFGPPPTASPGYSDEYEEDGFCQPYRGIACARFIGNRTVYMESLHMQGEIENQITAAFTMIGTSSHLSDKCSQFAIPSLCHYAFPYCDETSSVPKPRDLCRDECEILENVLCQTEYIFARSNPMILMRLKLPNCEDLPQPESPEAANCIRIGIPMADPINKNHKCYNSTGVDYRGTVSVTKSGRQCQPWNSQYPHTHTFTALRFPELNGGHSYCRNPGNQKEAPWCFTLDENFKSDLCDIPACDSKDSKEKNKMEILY

B1: Clone 82H02 (from a Fab yeast surface display library of immunized transgenic rats) (Fab, V domains shown)
VH: EVQLLESGGGLVQPGGSLRLSCAASGFTFTSYAMSWVRQAPGKGLEWVSTISGSGGGTYYTDSVKGRFTISRDNSKNTLYLQMNSLRAEDTAVYYCAQGSSIFDYWGQGTLVTVSS
VL: EIVLTQSPATLSLSPGERATLSCRASQSVSSYLAWYQQKPGQAPRLLIYDASNRATGIPARFSGSGSGTDFTLTISSLEPEDFAVYYCQQRSNWPPCTFGQGTRLEIK
B1: no binding [1]; no binding [2].

B2: 82H02 TCE #3 (sequence optimized 82H02 bispecific TCE in Format 1A, low ROR1 / high CD3 affinity) (bispecific antibody)
heavy 1: EVQLVESGGGLVQPGGSLKLSCAASGFTFNTYAMNWVRQASGKGLEWVGRIRSKYNNYATYYADSVKGRFTISRDDSKNTLYLQMNSLKTEDTAVYYCVRHGNFGASYVSWFAYWGQGTMVTVSSASTKGPSVFPLAPSSKSTSGGTAALGCLVKDYFPEPVTVSWNSGALTSGVHTFPAVLQSSGLYSLSSVVTVPSSSLGTQTYICNVNHKPSNTKVDKKVEPKSCDKTHTCPPCPAPEAAGGPSVFLFPPKPKDTLMISRTPEVTCVVVDVSHEDPEVKFNWYVDGVEVHNAKTKPREEQYNSTYRVVSVLTVLHQDWLNGKEYKCKVSNKALGAPIEKTISKAKGQPFRPEVHLLPPSREEMTKNQVSLTCLARGFYPKDIAVEWESNGQPENNYKTTPSRQEPSQGTTTFAVTSKLTVDKSRWQQGNVFSCSVMHEALHNHYTQKTISLSPGK
heavy 2: EIVLTQSPATLSLSPGERATLSCRASQSVSSYLAWYQQKPGQAPRLLIYDASNRATGIPARFSGSGSGTDFTLTISSLEPEDFAVYYCQQRSNWPPFTFGQGTRLEIKGGGGSGGGGSGGGGSGGGGSEVQLLESGGGLVQPGGSLRLSCAASGFTFTSYAMSWVRQAPGKGLEWVSTISGSGGGTYYTDSVKGRFTISRDNSKNTLYLQMNSLRAEDTAVYYCAQGSSIFDYWGQGTLVTVSSEPKSSDKTHTCPPCPAPEAAGGPSVFLFPPKPKDTLMISRTPEVTCVVVDVSHEDPEVKFNWYVDGVEVHNAKTKPREEQYNSTYRVVSVLTVLHQDWLNGKEYKCKVSNKALGAPIEKTISKAKGQPREPQVYTLPPPSEELALNELVTLTCLVKGFYPSDIAVEWLQGSQELPREKYLTWAPVLDSDGSFFLYSILRVAAEDWKKGDTFSCSVMHEALHNHYTQKSLDRSPGKGGGGSGGGGSGGGGSGGGGSEIVLTQSPATLSLSPGERATLSCRASQSVSSYLAWYQQKPGQAPRLLIYDASNRATGIPARFSGSGSGTDFTLTISSLEPEDFAVYYCQQRSNWPPFTFGQGTRLEIKGGGGSGGGGSGGGGSGGGGSEVQLLESGGGLVQPGGSLRLSCAASGFTFTSYAMSWVRQAPGKGLEWVSTISGSGGGTYYTDSVKGRFTISRDNSKNTLYLQMNSLRAEDTAVYYCAQGSSIFDYWGQGTLVTVSS
light: QAVVTQEPSLTVSPGGTVTLTCRSSTGAVTTSNYANWVQQKPGQAPRGLIGGTNKRAPGTPARFSGSLLGGKAALTLSGVQPEDEAEYYCALWYSNLWVFGGGTKLTVLGQPKAAPSVTLFPPSSEELQANKATLVCLISDFYPGAVTVAWKADSSPVKAGVETTTPSKQSNNKYAASSYLSLTPEQWKSHRSYSCQVTHEGSTVEKTVAPTECS
notes: also called 82H02 #3; 82H02 VL1.06x1F3.5-VH1.03
For B2, the EC50 [3] was 1040 nM, the “IFNγ release EC50, PBMCs: MDA-MB-231” value [4] was 425 nM and the “Max IFNγ, PBMCs: MDA-MB-231” value [4] was 881 pg/mL. The “TDCC AUC, PBMCs: MDA-MB-231-0.2” value [5] was 31300, the “TDCC AUC, PBMCs: MDA-MB-231-0.4” value [5] was 44800 and the “TDCC AUC, PBMCs: MDA-MB-231-0.6” value [5] was 51000. For the same binder, the “TDCC AUC, PBMCs: MDA-MB-231-1.3” value [5] was 61700, the “TDCC AUC, PBMCs: MDA-MB-231-7” value [5] was 71400 and the “TDCC EC50, PBMCs: MDA-MB-231-0.2” value [5] was 0.0181 nM. For the same binder, the “TDCC EC50, PBMCs: MDA-MB-231-0.4” value [5] was 0.0153 nM, the “TDCC EC50, PBMCs: MDA-MB-231-0.6” value [5] was 0.0138 nM and the “TDCC EC50, PBMCs: MDA-MB-231-1.3” value [5] was 0.0102 nM. For the same binder, the “TDCC EC50, PBMCs: MDA-MB-231-7” value [5] was 0.00546 nM, the “TDCC Emax, PBMCs: MDA-MB-231-0.2” value [5] was 33.1% and the “TDCC Emax, PBMCs: MDA-MB-231-0.4” value [5] was 47.8%. For the same binder, the “TDCC Emax, PBMCs: MDA-MB-231-0.6” value [5] was 53.8%, the “TDCC Emax, PBMCs: MDA-MB-231-1.3” value [5] was 63.2% and the “TDCC Emax, PBMCs: MDA-MB-231-7” value [5] was 72.8%. The “fold difference in ROR1 binding affinity against 82H02 TCE #4” value [6] was about 2 fold, the “IFNγ release AUC, PBMCs: MDA-MB-231-0.2” value [7] was 1.29e+06 and the “IFNγ release AUC, PBMCs: MDA-MB-231-0.4” value [7] was 1.68e+06. For the same binder, the “IFNγ release AUC, PBMCs: MDA-MB-231-0.6” value [7] was 1.62e+06, the “IFNγ release AUC, PBMCs: MDA-MB-231-1.3” value [7] was 4.32e+06 and the “IFNγ release AUC, PBMCs: MDA-MB-231-7” value [7] was 4.43e+06. The “IFNγ release EC50, PBMCs: MDA-MB-231-0.2” value [7] was 0.202 nM, the “IFNγ release EC50, PBMCs: MDA-MB-231-0.4” value [7] was 0.167 nM and the “IFNγ release EC50, PBMCs: MDA-MB-231-0.6” value [7] was 0.107 nM. For the same binder, the “IFNγ release EC50, PBMCs: MDA-MB-231-1.3” value [7] was 0.0308 nM, the “IFNγ release EC50, PBMCs: MDA-MB-231-7” value [7] was 0.0271 nM and the “IFNγ release Emax, PBMCs: MDA-MB-231-0.2” value [7] was 1830%. The “IFNγ release Emax, PBMCs: MDA-MB-231-0.4” value [7] was 2250%, the “IFNγ release Emax, PBMCs: MDA-MB-231-0.6” value [7] was 3160% and the “IFNγ release Emax, PBMCs: MDA-MB-231-1.3” value [7] was 4680%. The “IFNγ release Emax, PBMCs: MDA-MB-231-7” value [7] was 4730%, the “fold difference in apparent ROR1 binding affinity between human and mouse ROR1” value [8] was about 5 fold and the “TDCC EC50, PBMCs: MDA-MB-231” value [9] was 148 nM. The “fold difference in ROR1 binding affinity against 82H02 TCE #4” value [10] was about 3 fold, the EC50 [11] was 3 nM and the EC50 [12] was 211 nM. The EC50 [13] was 4.4 nM.

From patent US20240343800A1 (Merck KGaA, published 2024)
